Data on 41 sequences can be found in the nanobody polyreactivity screen of Harvey et al. (2022).

A short description of this series: yeast display, Sf9 membrane polyspecificity reagent, FACS + sequencing; frameworks hold sequencing errors. The method in brief:
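Galactose-induced (36–48 hours) yeast carrying a synthetic nanobody display library were exposed to 10% biotinylated, detergent-solubilized Sf9 membrane reagent at 4 °C for 1 hour. FACS followed streptavidin microbead enrichment, using low and high (top ~1%) gates for expression (anti-HA) and reagent binding (streptavidin). Colony PCR, MiSeq 2 × 250 sequencing and CDR-length filtering followed. Labels for polyreactivity reflect the gate of origin.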
Turning to “QVQLVESGGGLVQAGGSLRLSCAASGLIFDTYAMGWYRQAPGKEREWVADITWSGGSTYYADSVKGRFTISRDNAKNTVYLQMNSLKPEETAVYYCAADSVSLFYWDQRYPDEYDYWGQGTQVTVSS”, the “polyreactivity (PSR sort gate)” value was “low polyreactivity”.
Under “QVQLVESGGGLVQAGGSLRLSCAASGLIFDYYAMGWYRQAPGKERELVAAISANTGRTYYADSVKGRFTISRDNAKNTVYLQMNSLKPEDTAVYYCAAYTQYDGAEFDYWGHGTQVTVSS” stands “high polyreactivity”; under “QVQLVESGGGLVQAGGSLRLSCAASGLIFENNAMGWYRQAPGKERELVAAITKGGGSTYYADSVKGRFTISRDNAKNTVYLQMNSLKPVDTAVYYCAKDHPWHRYWQYWYDYWGLGTQVTVSS”, “low polyreactivity”.
Under “QVQLVESGGGLVQAGGSLRLSCAASGLIFENNAMGWYRQAPGKERELVAAITYSGGSTYYADSVKGRFTISRDNAKNTVYLQMNSLKPEDTAVYYCAAESYRRYGYDYWGQGTQVTVSS” stands “high polyreactivity”; under “QVQLVESGGGLVQAGGSLRLSCAASGLIFFWYTMGWYRKAPGKERELVAAIDSGGSTYYADSVKGRFTISRDNAKNTVYLQMNSLKPEDTAVYYCNADPGWGIYDDYWVQGTQVTVSS”, “high polyreactivity”.
Under “QVQLVESGGGLVQAGGSLRLSCAASGLIFFWYTMGWYRQAPGKERELVAAISGSGTGTYYADSVKGRFTISRDNAKNTVYLQMNSLIPEDTAVYYCATDYVYRGYLMNYWGQGTQVTVSS” stands “high polyreactivity”; under “QVQLVESGGGLVQAGGSLRLSCAASGLIFFYLNDMGWYRQAPGKERELVATITSGTSTTYADSVKGRFTISRDNAKNTVYLQMNSLKPEDTAVYYCNATDVGIITVGYGHGGYYWGQGTQVTVSS”, “low polyreactivity”.
On to “QVQLVESGGGLVQAGGSLRLSCAASGLIFGDYVMGWYRQAPGKERELVAAISNNGDSTYYADSVKGRFTISRDNAKNTVYLQMNSLIPEDTAVYYCNADGDRGGYVLTEHDSWGQGTQVTVSS”, for which the “polyreactivity (PSR sort gate)” value is “low polyreactivity”.
For the sequence “QVQLVESGGGLVQAGGSLRLSCAASGLIFGGTAMGWYRQAPGKERELVAAITYRTGSTYYADSVKGRFTISRDNAKNTVYLQMNSLKPEDTAVYYCAAAVSLGYPVAFYYWGQGTQVTVSS”, the “polyreactivity (PSR sort gate)” value is recorded as “low polyreactivity”.
Regarding “QVQLVESGGGLVQAGGSLRLSCAASGLIFGKYAMGWYRQAPGKERELVAAITSSGGGTYYADSVKGRFTISRDNAKNTVYLQMNSLKPEDTAVYYCATGPDPKYDYWGQGTQVTVSS”, the “polyreactivity (PSR sort gate)” value is given as “high polyreactivity”.
For “QVQLVESGGGLVQAGGSLRLSCAASGLIFGNYAMGWYRQAPGKERELVAAITSTGITYYADSVKGRFTISRDNAKNTVYLQMNSLKPEDTAVYYCNADYYRHSLDYDYVGYDYWGQGTQVTVSS” the value was “low polyreactivity”; for “QVQLVESGGGLVQAGGSLRLSCAASGLIFGRNARGWYRQAPGKERELVAVISKRGGSTYYADSVKGRFTISRDNAKNTVYLQMNSLKPADTAVYYCAADYGSTGNYWGQGTQVTVSS”, “high polyreactivity”.
Consider “QVQLVESGGGLVQAGGSLRLSCAASGLIFGRYAMGWYRQAPGKERELVAGISGSGGITYYADSVKGRFTISRDTAKNTVYLQMHILKPEDTAVYYCATAAASHKYGYWGQGTQVTVSS”, for which the “polyreactivity (PSR sort gate)” value is listed as “low polyreactivity”.
Under “QVQLVESGGGLVQAGGSLRLSCAASGLIFGRYTMGWYRQAPGKEREFVAAISRSGGSTYYADSVKGRFTISRDNAKITVYLQRNSLKPEDTAVYYCAARGSYTRPKRYGYWGQGTQVTVSS” stands “high polyreactivity”.
Turning to “QVQLVESGGGLVQAGGSLRLSCAASGLIFGVNAMGWYRQAPGKEMELVAAITSRGGSTYYADSVKGRFTISRDNAKNTVYLQMNSLKPEDTAVYYCAAKYAYYEPYSWRPQRTYNYWGQGTQVTVSS”, the “polyreactivity (PSR sort gate)” value is listed as “high polyreactivity”.
Turning to “QVQLVESGGGLVQAGGSLRLSCAASGLIFGVNAMGWYRQAPGKEREFVARITRSGSSTYYADSVKGRFTISRDNAKNTVYLQMNSLKPEDTAVYYCAVDLFYKYDWGQGTQVTVSS”, the “polyreactivity (PSR sort gate)” value was “high polyreactivity”.
Regarding “QVQLVESGGGLVQAGGSLRLSCAASGLIFGVYAMGWYRQAPGKERELVAGISWRGSSTYYADSVKGRFTISRDNAKNTVYLQMNSLKPEDTAVYYCAAVRRPSRHAYGGTAVYYWGQGTQVTVSS”, the “polyreactivity (PSR sort gate)” value is “high polyreactivity”.
As to “QVQLVESGGGLVQAGGSLRLSCAASGLIFGYNAMGWYRQAPGKERELVAAISRRGTSTYYADSVKGRFTISRDNAKNTVYLQMNSLKPEDTAVYYCATYGVNPPGVEEYNYWGQGTQVTVSS”, the “polyreactivity (PSR sort gate)” value is on record as “high polyreactivity”.
As for “QVQLVESGGGLVQAGGSLRLSCAASGLIFGYNAMGWYRQAPGKERELVASINWSTGRTRYADSVKGRFTISRDNAKNTVYLQMNSLKPEDTAVYYCAARLYNPYPYEYWGQGTQVTVSS”, the “polyreactivity (PSR sort gate)” value was “high polyreactivity”.
For “QVQLVESGGGLVQAGGSLRLSCAASGLIFIGYAKGWSRQAPGKERELVASIRGVGSTNYADSVKGRFTISRDNAKNTVYLQMHSLKPEDTAVYYCATSVDRALYTQTRGDYDYWGQGTQVTVSS” the value was “low polyreactivity”; for “QVQLVESGGGLVQAGGSLRLSCAASGLIFIRYAMGWYRQAPGKERELVAAISWPGGNTYYADSVKGRFTISRDNAKNTVYLQMNSLKPEDTAVYYCAAVGTWQHRSYGYWGQGTQVTVSS”, “high polyreactivity”; for “QVQLVESGGGLVQAGGSLRLSCAASGLIFISYAMGWYRQAPGKERELVAAITSTVGGTYYADSVKGRFTISRDNAKNTVYLQMNSLQPEDTAVYYCAKEVWTWGPYYYWGQGTQVTVSS”, “low polyreactivity”.
Under “QVQLVESGGGLVQAGGSLRLSCAASGLIFKYNVMGWYRQAPGKERELVAAITWGGTRTYYADSVKGRFTISRDNAKNTVYLQMNSLKPEDTAVYYCAVRSARIERNYWGQGTQVTVSS” stands “low polyreactivity”; under “QVQLVESGGGLVQAGGSLRLSCAASGLIFLQYGLGWYRQAPGKERALVAAITTRGGRTYYADSVKGRFTISRDNANNTVYLQMNSLKPEDTAVYYCAADSEQDNLRYYRWVWYYYWGQGTQVTVSS”, “low polyreactivity”.
As for “QVQLVESGGGLVQAGGSLRLSCAASGLIFLQYVMGWYRQAPGKEREFVATITDDGDTTYYADSVKGRFTISRDNAKNTVYLQMNSLKPEDTAVYYCAARYVPVYYWDYPYDYWGQGTQVTVSS”, the “polyreactivity (PSR sort gate)” value is given as “low polyreactivity”.
For “QVQLVESGGGLVQAGGSLRLSCAASGLIFNKYTMGWYRQAPGTERELVAAISKSGGSTYYADSVKGRFTISRDNAKNTVYLQMNSLKPEDTAVYYCNRVTHYIRFDYWGQGTQVTGSS” the value was “low polyreactivity”; for “QVQLVESGGGLVQAGGSLRLSCAASGLIFPCYDMGWYRQAPGKERELVAAISDSGANTYYADSVKGRFTISRDNAKNTVYFQMNSLKPEDTAVYYCAAESSWWYGTSFGRFDYWGQGTQVTVSS”, “low polyreactivity”.
Under “QVQLVESGGGLVQAGGSLRLSCAASGLIFPDYDMGWYIQAPGKERELVAAISIGGVSTYYADSVKGRFTISRDNAKNTVYLQMNSLKPEDTAVYYCAAYYSYVYYVGDSDDYWGQGTQVTVSS” stands “low polyreactivity”; under “QVQLVESGGGLVQAGGSLRLSCAASGLIFPIYTMGWYRQAPGKERELVAAISSRGGSTYYADSVKGRFTISRDNAKNTVYLQMNSLKPEDTAVYYFGSYDYSGQGTQVTVSS”, “high polyreactivity”; under “QVQLVESGGGLVQAGGSLRLSCAASGLIFPQYAMGWYRQAPGKERELVAAISLSGTSTNYADSVKGRFTISRDNAKNTVYLQMNSLKPEDTAVYYCLADQRITQSVELEYDSWGQGSQVTVSS”, “low polyreactivity”.
In the case of “QVQLVESGGGLVQAGGSLRLSCAASGLIFPRYAMGWYRQAPGKERELVAAITRGGSTYYADSVKGRFTISRDNAKNTVYLQMNSLKPEDTAVYYCNAELPVHWSWYDYWGQGTQVTVSS”, the “polyreactivity (PSR sort gate)” value is “low polyreactivity”.
Turning to “QVQLVESGGGLVQAGGSLRLSCAASGLIFPRYAMGWYRQAPGKERELVAAITSRAGSTYYADSVKGRFTISRDNAKNTVYLQMNSLKPEDTAVYYCAAVSDGWDGDMYYWGQGTQVTVSS”, the “polyreactivity (PSR sort gate)” value is recorded as “low polyreactivity”.
Under “QVQLVESGGGLVQAGGSLRLSCAASGLIFPRYAMGWYRQAPGKERELVAAITSRAGSTYYADSVKGRFTISRDNAKNTVYLQMNSLKPEDTAVYYCAAVSDGWDGDMYYWGQVTQVTVSS” stands “low polyreactivity”; under “QVQLVESGGGLVQAGGSLRLSCAASGLIFPSYAMGWYRQAPGKERELVAAITFSGSDTNYADSVKGRFTISRDNAKNTVYLQMNSLKPEDTAVYYCAAAYFDFWGWLHDYWGQGTQVTVSS”, “low polyreactivity”.
Turning to “QVQLVESGGGLVQAGGSLRLSCAASGLIFPVYDMAWYRQAPGKERELVAAITRSGDSTYYADSVKGRFTISRDNAKNTVYLQMNSLKPEDSGVYYCAAQPGTASYAGDGDSWGKGTQVTVSS”, the “polyreactivity (PSR sort gate)” value is given as “low polyreactivity”.
For “QVQLVESGGGLVQAGGSLRLSCAASGLIFPYNAMGWYRQAPGKERELVAAIDSGVTTYYADSVKGRFTISRDNAKNTVYLQMNSLKPEDTAVYFCAADGLPGPEGDSWGQGTQVSVSS” the value was “low polyreactivity”.
With “QVQLVESGGGLVQAGGSLRLSCAASGLIFPYYVKVWYRQAPGKERELVAAISWNGSSTYYADSVKGRFTISRDNAKNTVYLQMNSLKPEDTAVYYCAASYGYFEDYGYWGQGTQVTVSS”, the “polyreactivity (PSR sort gate)” value is reported as “low polyreactivity”.
For “QVQLVESGGGLVQAGGSLRLSCAASGLIFQEYAMGWYRQAPGKERELVAAITSGDSTNYADSVKGRFTISRDNAKNTVYLQMNSLKPEDTAVYYCNVDEAYYFVGEDNYDYWGQGTQVTVSS”, the “polyreactivity (PSR sort gate)” value was “low polyreactivity”.
Under “QVQLVESGGGLVQAGGSLRLSCAASGLIFQVYDMGWYRQAPGKERELVAAISSGSNTNYADSVKGRFTISRDNAKNTVYLQMNSLKPEDTAVYYCAAGLYLQGPFDYWGQGTQVTVSS” stands “low polyreactivity”.
Take “QVQLVESGGGLVQAGGSLRLSCAASGLIFQVYDMGWYRQAPGKERELVAAISSGSNTNYADSVKGRFTISRDNAKNTVYLQMNSRKPEDTAVYYCAASWGYGALTPDMGYWGQGTQVTVSS”: the “polyreactivity (PSR sort gate)” value is on record as “low polyreactivity”.
Under “QVQLVESGGGLVQAGGSLRLSCAASGLIFRGNAMGWYRQAPGKERELVAGITRGGSTYYADSVKGRFTISRDNAKNTVYLQMNSLKPEDTAVYYCAAAFRDGFTRRYGYWGQGTQVTVSS” stands “high polyreactivity”.
